Positions count from the first letter of the chain named.

The target in data set [1] is T1, BP/KNAT1 (B…US) (Arabidopsis thaliana, UniProt P46639 1-398).
T1 sequence: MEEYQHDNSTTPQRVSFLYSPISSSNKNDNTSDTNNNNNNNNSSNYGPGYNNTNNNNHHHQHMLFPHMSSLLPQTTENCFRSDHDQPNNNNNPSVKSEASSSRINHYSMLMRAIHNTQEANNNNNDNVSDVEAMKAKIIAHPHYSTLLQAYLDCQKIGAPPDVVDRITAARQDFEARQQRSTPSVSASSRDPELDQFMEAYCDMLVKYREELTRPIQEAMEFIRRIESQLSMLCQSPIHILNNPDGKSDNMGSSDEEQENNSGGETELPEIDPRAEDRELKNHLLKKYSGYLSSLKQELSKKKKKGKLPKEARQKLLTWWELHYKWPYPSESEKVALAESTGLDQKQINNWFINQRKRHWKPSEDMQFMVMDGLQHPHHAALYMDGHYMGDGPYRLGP
The data set can be described thus: EMSA; excess unlabeled probe reduced binding; LightShift Chemiluminescent EMSA kit; 0.5 ug BP-His with biotin-labeled probe, 20 min at room temperature, 6% polyacrylamide gel; buffer, salt and pH not stated. The note with it: protein: recombinant; tags: His (pET32a, per Methods); Results text says BP-MBP; label: biotin (both strands, per oligo names); blunt. (In general: A gel shift assay detects complexes by their altered migration in electrophoresis.)

Data set [2] deals with T1, BP/KNAT1 (B…US). The data set can be described thus: competition; excess unlabeled mutant vs biotin-labeled NCED6 probe; did not effectively reduce binding; LightShift Chemiluminescent EMSA kit; 0.5 ug BP-His with biotin-labeled probe, 20 min at room temperature, 6% polyacrylamide gel; buffer, salt and pH not stated. The note with it: protein: recombinant; tags: His (pET32a, per Methods); Results text says BP-MBP; blunt.

The target in data set [3] is T1, BP/KNAT1 (B…US). Description: competition; excess unlabeled mutant vs biotin-labeled NCED9 probe; did not effectively reduce binding; LightShift Chemiluminescent EMSA kit; 0.5 ug BP-His with biotin-labeled probe, 20 min at room temperature, 6% polyacrylamide gel; buffer, salt and pH not stated. The note with it: protein: recombinant; tags: His (pET32a, per Methods); Results text says BP-MBP; blunt.

B1: NCED6 probe (dsDNA)
DNA 1: TAGCCGGACATCATTTATTTGACGGTGACGGAATGATTCACGCCGTTA
DNA 2: TAACGGCGTGAATCATTCCGTCACCGTCAAATAAATGATGTCCGGCTA
B1: the binding result with BP/KNAT1 (B…US) [1] is on record as “binds”.

B2: NCED6-M mutant competitor (dsDNA)
DNA 1: B1 DNA 1 with T20A, G21A, C23A, T26A, G27A, C29A
DNA 2: B1 DNA 2 with G20T, C22T, A23T, G26T, C28T, A29T
B2: in the data set with BP/KNAT1 (B…US) [2], the binding result is on record as “no binding”.

B3: NCED9 probe (dsDNA)
DNA 1: CATTACACTTTTTTAAAATGACTGGAATGCATGACGTTTGGGCAC
DNA 2: GTGCCCAAACGTCATGCATTCCAGTCATTTTAAAAAAGTGTAATG
B3: the binding result with BP/KNAT1 (B…US) [1] is recorded as “binds”.

B4: NCED9-M mutant competitor (dsDNA)
DNA 1: CATTACACTTTTTTAAAAAAAATGGAATGCAAAAAGTTTGGGCAC
DNA 2: GTGCCCAAACTTTTTGCATTCCATTTTTTTTAAAAAAGTGTAATG
Consider B4, for which the binding result with BP/KNAT1 (B…US) [3] is given as “no binding”.

(Values after PMC12785155, “Phytochrome B stabilizes the KNOX transcription factor BP/KNAT1 to promote light-initiated seed germination in Arabidopsis thaliana”.)
